# Measurements as given in US20210388087A1 (Chugai, published 2021).
# Residue numbers refer to the chain shown, from its start. Numbers in names are those of the source.
# T1: Human CD3eg linker (human)
# T1 construct: Single chain: epsilon and gamma subunits of human CD3 joined by a 29-mer linker, Flag-tag at the C-terminus; also called recombinant human CD3
# T1 chain: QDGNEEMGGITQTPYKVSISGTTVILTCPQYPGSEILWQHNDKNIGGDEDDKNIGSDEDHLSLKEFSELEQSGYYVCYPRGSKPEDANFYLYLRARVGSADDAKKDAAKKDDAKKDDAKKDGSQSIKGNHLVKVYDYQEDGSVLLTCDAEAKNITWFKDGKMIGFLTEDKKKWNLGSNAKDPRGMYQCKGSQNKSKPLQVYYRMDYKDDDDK
# B1: H183/L072 VH F29S (antibody, name in Kabat numbering, V domains shown)
# VH: QVQLVESGGGLVQPGRSLRLSCAASGFTSSNAWMHWVRQAPGKGLEWVAQIKDKGNAYAAYYAPSVKGRFTISRDDSKNSIYLQMNSLKTEDTAVYYCHYVHYASASTVLPAFGVDAWGQGTTVTVSS
# VL: DIVMTQSPLSLPVTPGEPASISCQASQELVHMNRNTYLHWYQQKPGQAPRLLIYKVSNRFPGVPDRFSGSGSGTDFTLKISRVEAEDVGVYYCAQGTSVPFTFGQGTKLEIK
# B2: H183/L072 VH F29T (antibody, name in Kabat numbering, V domains shown)
# VH: B1 VH with S29T
# VL: B1 VL
# B3: H183/L072 VH F29V (antibody, name in Kabat numbering, V domains shown)
# VH: B1 VH with S29V
# VL: B1 VL
# B4: H183/L072 VH F29W (antibody, name in Kabat numbering, V domains shown)
# VH: B1 VH with S29W
# VL: B1 VL
# B5: H183/L072 VH F29Y (antibody, name in Kabat numbering, V domains shown)
# VH: B1 VH with S29Y
# VL: B1 VL
# B6: H183/L072 VH F100gA (antibody, name in Kabat numbering, V domains shown)
# VH: B1 VH with S29F, F113A
# VL: B1 VL
# B7: H183/L072 VH F100gI (antibody, name in Kabat numbering, V domains shown)
# VH: B1 VH with S29F, F113I
# VL: B1 VL
# B8: H183/L072 VH F100gL (antibody, name in Kabat numbering, V domains shown)
# VH: B1 VH with S29F, F113L
# VL: B1 VL
# B9: H183/L072 VH F100gM (antibody, name in Kabat numbering, V domains shown)
# VH: B1 VH with S29F, F113M
# VL: B1 VL
# B10: H183/L072 VH F100gP (antibody, name in Kabat numbering, V domains shown)
# VH: B1 VH with S29F, F113P
# VL: B1 VL
# B11: H183/L072 VH G26D (antibody, name in Kabat numbering, V domains shown)
# VH: B1 VH with G26D, S29F
# VL: B1 VL
# B12: H183/L072 VH G26E (antibody, name in Kabat numbering, V domains shown)
# VH: B1 VH with G26E, S29F
# VL: B1 VL
# B13: H183/L072 VH G26F (antibody, name in Kabat numbering, V domains shown)
# VH: B1 VH with G26F, S29F
# VL: B1 VL
# B14: H183/L072 VH G26H (antibody, name in Kabat numbering, V domains shown)
# VH: B1 VH with G26H, S29F
# VL: B1 VL
# B15: H183/L072 VH G26I (antibody, name in Kabat numbering, V domains shown)
# VH: B1 VH with G26I, S29F
# VL: B1 VL
# B16: H183/L072 VH G26K (antibody, name in Kabat numbering, V domains shown)
# VH: B1 VH with G26K, S29F
# VL: B1 VL
# B17: H183/L072 VH G26L (antibody, name in Kabat numbering, V domains shown)
# VH: B1 VH with G26L, S29F
# VL: B1 VL
# B18: H183/L072 VH G26M (antibody, name in Kabat numbering, V domains shown)
# VH: B1 VH with G26M, S29F
# VL: B1 VL
# B19: H183/L072 VH G26N (antibody, name in Kabat numbering, V domains shown)
# VH: B1 VH with G26N, S29F
# VL: B1 VL
# B20: H183/L072 VH G26P (antibody, name in Kabat numbering, V domains shown)
# VH: B1 VH with G26P, S29F
# VL: B1 VL
# B21: H183/L072 VH G26Q (antibody, name in Kabat numbering, V domains shown)
# VH: B1 VH with G26Q, S29F
# VL: B1 VL
# B22: H183/L072 VH G26R (antibody, name in Kabat numbering, V domains shown)
# VH: B1 VH with G26R, S29F
# VL: B1 VL
# B23: H183/L072 VH G26S (antibody, name in Kabat numbering, V domains shown)
# VH: B1 VH with G26S, S29F
# VL: B1 VL
# B24: H183/L072 VH G26T (antibody, name in Kabat numbering, V domains shown)
# VH: B1 VH with G26T, S29F
# VL: B1 VL
# B25: H183/L072 VH G26V (antibody, name in Kabat numbering, V domains shown)
# VH: B1 VH with G26V, S29F
# VL: B1 VL
# B26: H183/L072 VH G26W (antibody, name in Kabat numbering, V domains shown)
# VH: B1 VH with G26W, S29F
# VL: B1 VL
# B27: H183/L072 VH G26Y (antibody, name in Kabat numbering, V domains shown)
# VH: B1 VH with G26Y, S29F
# VL: B1 VL
# B28: H183/L072 VH G52cA (antibody, name in Kabat numbering, V domains shown)
# VH: B1 VH with S29F, G55A
# VL: B1 VL
# B29: H183/L072 VH G52cD (antibody, name in Kabat numbering, V domains shown)
# VH: B1 VH with S29F, G55D
# VL: B1 VL
# B30: H183/L072 VH G52cE (antibody, name in Kabat numbering, V domains shown)
# VH: B1 VH with S29F, G55E
# VL: B1 VL
# B31: H183/L072 VH G52cF (antibody, name in Kabat numbering, V domains shown)
# VH: B1 VH with S29F, G55F
# VL: B1 VL
# B32: H183/L072 VH G52cH (antibody, name in Kabat numbering, V domains shown)
# VH: B1 VH with S29F, G55H
# VL: B1 VL
# B33: H183/L072 VH G52cI (antibody, name in Kabat numbering, V domains shown)
# VH: B1 VH with S29F, G55I
# VL: B1 VL
# B34: H183/L072 VH G52cK (antibody, name in Kabat numbering, V domains shown)
# VH: B1 VH with S29F, G55K
# VL: B1 VL
# B35: H183/L072 VH G52cL (antibody, name in Kabat numbering, V domains shown)
# VH: B1 VH with S29F, G55L
# VL: B1 VL
# B36: H183/L072 VH G52cM (antibody, name in Kabat numbering, V domains shown)
# VH: B1 VH with S29F, G55M
# VL: B1 VL
# B37: H183/L072 VH G52cN (antibody, name in Kabat numbering, V domains shown)
# VH: B1 VH with S29F, G55N
# VL: B1 VL
# B38: H183/L072 VH G52cP (antibody, name in Kabat numbering, V domains shown)
# VH: B1 VH with S29F, G55P
# VL: B1 VL
# B39: H183/L072 VH G52cQ (antibody, name in Kabat numbering, V domains shown)
# VH: B1 VH with S29F, G55Q
# VL: B1 VL
# B40: H183/L072 VH G52cR (antibody, name in Kabat numbering, V domains shown)
# VH: B1 VH with S29F, G55R
# VL: B1 VL
# B41: H183/L072 VH G52cS (antibody, name in Kabat numbering, V domains shown)
# VH: B1 VH with S29F, G55S
# VL: B1 VL
# B42: H183/L072 VH G52cT (antibody, name in Kabat numbering, V domains shown)
# VH: B1 VH with S29F, G55T
# VL: B1 VL
# B43: H183/L072 VH G52cV (antibody, name in Kabat numbering, V domains shown)
# VH: B1 VH with S29F, G55V
# VL: B1 VL
# B44: H183/L072 VH G52cW (antibody, name in Kabat numbering, V domains shown)
# VH: B1 VH with S29F, G55W
# VL: B1 VL
# B45: H183/L072 VH G52cY (antibody, name in Kabat numbering, V domains shown)
# VH: B1 VH with S29F, G55Y
# VL: B1 VL
# Molecular target: T1, Human CD3eg linker
# Experiment: Biacore SPR, vs template H183/L072
row,Binder,fold change of affinity [fold]
1,B1,0.1
2,B2,0.2
3,B3,0
4,B4,0.5
5,B5,0.4
6,B6,1.7
7,B7,1.2
8,B8,1.3
9,B9,1.4
10,B10,1.8
11,B11,0.2
12,B12,0.6
13,B13,0.4
14,B14,0
15,B15,0.5
16,B16,0.6
17,B17,0.6
18,B18,0.6
19,B19,0.4
20,B20,0.1
21,B21,0.4
22,B22,0.5
23,B23,0.2

row,Binder,fold change of affinity [fold]
1,B24,0.4
2,B25,0
3,B26,0.6
4,B27,0.6
5,B28,1.6
6,B29,1.1
7,B30,1.2
8,B31,2
9,B32,1.7
10,B33,1.1
11,B34,1.6
12,B35,1.5
13,B36,1.4
14,B37,1.2
15,B38,1.3
16,B39,1.9
17,B40,1.4
18,B41,1
19,B42,0.9
20,B43,1.5
21,B44,1.5
22,B45,1.5
